As usually defined, the Kd is the concentration at which binding is half-saturated.

The values below come from patent US20100297664A1 (published 2010).

For one experiment, the target named is Δmot #4 403-679. Description: BIACORE. (SPR reads the build-up and loss of mass on a sensor chip optically.)
Experiment [1] has as its target full-length mortalin with an His tag (recombinant, expressed in Escherichia coli). Description: BIACORE.

B1: Ab (52-3) (antibody, V domains shown)
VH: QVQLQQPGAELVKPGASVKLSCKASGYTFTSYWMHWVKQRPGQGLEWIGEINPSNGRTNYNEKFKSKATLTVDKSSSTAYMQLSSLTSEDSAVYYCARSRYYGSCYFDYWGQGTTLTVSS
VL: KIVMTQAAFSNPVTLGTSASISCRSSKSLLYSNGITYLYWYLQKPGQSPQLLIYQMSNLASGVPDRFSSSGSGTDFTLRISRVEAEDVGVYYCAQNLELPWTFGGGTKLEIK
Turning to B1, the Kd in the experiment with Δmot #4 403-679 came to 4.61 nM.

B2: anti-mortalin monoclonal antibody 52-3 (antibody, V domains shown)
VH: B1 VH
VL: B1 VL
B2: in experiment [1], the equilibrium dissociation constant (Kd) turned out to be 8.17 nM.
